Source: patent publication US20050244819

Tested on: beta-Gal^PR, engineered E. coli beta-galactosidase with the HIV p6/PR cleavage site decapeptide inse [β-galactosidase: P00722]

Substance: TF-PR^D25N, HIV protease precursor with the D25N mutation at the catalytic residue Asp25
- β-galactosidase activity: 0.178 µmol/min/mg
